# According to the DeepSol protein solubility set:
# Assay: soluble on expression in E. coli; label from the status in PepcDB or PDB records
row,Sequence,soluble on expression in E. coli
1,FGNFNFNTNFVFGYAKNRVDYKAEAQQKYEWLRETGRQIGQPFGYHWIGYYTPEDIEKINSGAADAPAKPDIAVQAGDLKYADLNGDGTINDFDKRAIGKPNLPTTTLGWTIGGSWKGFSISVLFQGSFDYSFAINGTGIESGKSQFQPLHQKRWTQERYENGESIEFPRLTMQDGTINSASAYNSDFWLINAWYIRLKTVDLGYQLPKTALPKFLDNVRFYVNAYNLLTFTGYDKYQQDPEIKTNTAGDAYMNQRVINFGVQLGF,not soluble
2,MGLFTTRQLLGYTEQKVKFNPLFLSLFFRRTVTFPTQEVMLDKITGKTPIAAYVSPVVGGKVLRNRGGETRVLRPGYVKPKHEVNYAQVVERLPGEDPARLNDPAYRRLRILTDNLKQEEKAIVQVEEMQAVSAVLNGKYTMQGEQFDTVEVDFGRSAGNNIIQATGKKWSEQDRETFDPTYDLDMYCDQASGLINIAVMDGKVWRLLNGFKLFREKLDTRRGSNSQLETAVKDLGAVVSFKGYYGDLAIVVAKTSYVADNGTEKRYLPEGTLVLGNTAAEGIRCYGAIQDSQALAEGIVAATRYPKHWLTVGDPANEYTMTQSAPLMVLPDPDEFVIVTVG,not soluble
3,MPLHHLTRFPRLEFIGAPTPLEYLPRLSDYLGREIYIKRDDVTPIAMGGNKLRKLEFLVADALREGADTLITAGAIQSNHVRQTAAVAAKLGLHCVALLENPIGTTAENYLTNGNRLLLDLFNTQIEMCDALTDPDAQLQTLATRIEAQGFRPYVIPVGGSSALGAMGYVESALEIAQQCEEVVGLSSVVVASGSAGTHAGLAVGLEHLMPDVELIGVTVSRSVAEQKPKVIALQQAIAGQLALTATADIHLWDDYFAPGYGVPNDAGMEAVKLLASLEGVLLDPVYTGKAMAGLIDGISQKRFNDDGPILFIHTGGAPALFAYHPHV,not soluble
4,MSLHGRLRDILRLLMAAEAPVTSSFFAAQLNVTTRTVRNDIKELQGVLSGHGAFVQSVRGSGYKLRIDDEQVFRTLLQDEFQQKKGLPVLPEERMAYLMKRLLLADHYLKLDELAEELFISKSTLQTDLKEVKKRLLPYRIVMETRPNYGFKLRGDEVQMRYCMAEYIVDERETEIDVLNEKADILPKEEIEIIRSAILKKMKNDRIPLSNMGLNNLIIHIAIACKRIRTENYVSLFPKDMDHILHQKEYQAAEAIVKELESKLSVTFPKDETAYITMHLLGTKRMTQSQCGEDTFSIEEETDQLTLAMIKAVDRELKLGILHDKELKIGLALHMKPAISRNRYGMNLRNPMLAAIKEHYPLAFEAGIIAGIVIKEQTGIEIHENEIGYLALHFGAAIERKKTESPPKRCIIVCASGAGSAQLLREKLRSHFGKRLDILGTAEYYSLDQMSYESIDFVISTIPIKKELPVPVLKVNTILGGTDFTKIESILSDEKEKANRYLKKELVFFQEDLRSKEEVIQFLGQKVVECGFADEEIIDSIFEREDMSPTCFGNLVAIPHPLVPQTKTTFWAVCTLKKPIDWESQRVQFVCLLCVEKENKADLQSMYKLLGSILDDPAAMNQLIKCRSYQELSDVFDQKMLSEGHHHHHH,soluble
5,MAHHHHHHMPSGERRGRVGPVRFRTFLRNTVLDVMRSRGWLETDSDLGWDLFWADVGWIREVHDHVRLDDVQRINHFRNHFELTRKDFMVKNLKRMRKSLEREGRLEEATEFDFFPVTFSLPQDYGMFETEFRRQPNAIWIMKPPAKAQGKGIFLFSKISQIAEWRKDYKQRQVGAVGEKAGGPYGAEQVEPYLAQRYIENPHLVGGKKYDLRVYVLVTCYSPLTVWLHRTGFARFCHQRFSLRDIENTFIHVTNVAVQKTNPKYTPSSGCKYGLRNLRQYITASRGVETAQKLFDDIQNMILRSLHAVQKIIVQDKHCFELYGYDIMVDNDLHPWLIETNASPSLSAETPADYHLKFNMLEDMFSVIDIEKRRTGDEIRVGGFDLIWKNGPVGPACRGDAKGGGVTQSFLGCANELEIPISHMRMPPRLQQMDSSERLLT,not soluble
6,GPGSMCTAHSQSYLPLPPPTRTSTHTLTANVTQLRCRRRCVTPAIRTSRPPPAVAPPAALPAAHRPCICLLLHDLSPLPLLVLPPSLPLCAAPLHAAAHLPSHRTPSRPPMSAYHSSNPVEARRAECARLQAKYPGHVAVVVEAAEKAGSKVHFLALPRDATVAELEAAVRQALGTSAKKVTLAIEGSTPAVTATVGDIADACKRDDGFLYVSVRTEQAMGGIAGLCFASDSGGI,not soluble
7,MKTVYLTIDDGPSKDRKEKVDILYQYGIQPIWFCIGSEIEKRPEDVIYSIRKGGIIGNHSYSHPRFSQISLEECFEEIEKTDRIIDSIYREAGVARPIKAFRFPYGDKGEDNNFFKKPYSEEGKKKISKIMTFLKELGYTKPKFDGITYEYYSKFGLKDDIDWYWTYDVAEWCTFQEKPMFGVRTIDDVFELMELDLPEKWAGLNYPYSDDIILMHDHPQTTPLFKPIICQLLKKGLHFGAIPLE,soluble
8,MSLNFDSLLLDIDGTLILKGQPLPGAAEALSFARAQGLRLQLLTNTTAKMPEALAQELCQAGIEVVPDEIQTATTACVGYLQQHAQLKCHLLVPDSIRAAFNGILTDDTNPDVVVISDIGEAFDYATLNRCFRMLRGGARLIALQKNLFWFDRDGERLDCGAFIVGLEAAAQVQALVMGKPSPMFFEAALRKLDTCASRTLVVGDDVLTDCAGAKAVGASSLLVRTGKYDLALFDAHRHNVGAVIDGIADFPRWWASGNTADRHDEGHHHHHH,soluble
9,MGSDKIHHHHHHMSIIDSQESTLYQQLAETFATAIHQGTLAPGSRLPSIRRVAGSHQVSVNTVLNAWRILEDRGLIEARPQSGYFVRGRLPSLTESKPHRAQVIVPGSEKLDLIDTVFAAQTHPDYTNISLACPQHTDFYPTEKISRIAASLLRRQPELIGRYALPPGSERLRREVARRAMDLGMTLTREDITITHGCMEALQLALRTVTQPGDCVGLETPTYFYLFPLLASLGLKTVEIPTDPQRGLSLDALELLLSENRLQAIIAMPNAQNPLGCSMTLADKKRLAKLVNDYQVPLIEDGLYSELQFTWPLSPTVKAFDREGWVIYCSSFTKTLAPDFRIGWMASGRFRAQVARLKAVSSMAESALLSETLAQFLESGGYDHHLRTLRRRYAAQMDEARGLIARHFPQGTRATQPQGGFVFWLELPGGVDGVELFHRLLQEKICVTPGELYTLSGRCKHALRLSCCYPFDERYTYALKRAGALACEMSGIGPGNEG,not soluble
10,MAHHHHHHMNTFFLSRFRGGTFFLQKYEKIWNRAKGYHTYNYIFQNNKNIINHKKKNRNLFLYEKRNFYTSNDGKKYTKKFWNHLGFVIIPQETAYIVERLGKYNKTLLAGIHFLIPFIDKIAYVFSLKEETITIPNQTAITKDNVTLNIDGVLYIKCDNPYNSSYAIEDAVFAVTQLAQVTMRSELGKLTLDATFLERDNLNEKLVKAINESAKNWGIKCMRYEIRDIILPVNIKNAMEKQAEAERRKRAEILQSEGERESEINIAIGKKRKSILIAEGQSFAIKAKADATAEAIEIISNKIKKLDSNNAISLLVAEQYIDVFSNICKNNNTVIIPADLNNISSLISQSLSIYNNIQNSKKENNQIHTLPIQKQIHSDMNN,not soluble
11,MGSDKIHHHHHHMTFRALPSVDRLIRAVRSDGADMPHELVREAARAVLNEARTSISAGHPPPDLSTLVAAVQARLRADVTPSLRPLINATGVIIQTNLGRAPLSAAACAAMQEVGSGYSNLEYDLAQGERGSRHVHLESLLVQLTGAEAALVVNNNAAAVYLVLIAMAAGREVIVSRGQAVEIGGGFRIPDVLRASGALLIEVGTTNRTYARDYTAAITERTALILRVHTSNFRLIGFVHEPPLAELTAVAHTHGIPLLDDLGSGTLIDTRQFDLPPEPTVQESVAAGADLVTFSGDKLLGGPQAGIIVGRRELIARLRRHPLARALRVDKCTIAGLTATLHSYLRGTALREIPVWQLISTPLSALQARAERIAGALRAAGIPAQMVDCASAIGGGSLPGATQPSAGVALPPVGCGATVLAHRLRMANPPVITRIVDDQVLCDLRSVFPHEDTTLINVVREVWQ,not soluble
12,SEKAVHSSTTSGPAVPGETTKTGTSIIDTAASAVQSFAPVNQIHQHLCAFHFYADDMARQVEAHHFCSHVNEEMRQCLIYDGPDANARLIGLEYIVSEKLFMTLPDEEKKLWHSHEWEVKGGFLFMPGVPGAIQRKDLDKVAKTYGKVFHFWQVDLGHELPIGLPNVMMAVTRDGQLFHEMIQEAEKRFGVSVEGERDSRAYMSGPELGIHPLANGGGKGMKLELREVDIKPVESVGSVFV,soluble
13,ERVPEGSIRVAIASNNGEQLDGHFGSCLRFLVYQVSAKDASLVDIRSTLDVALAEDKNAWRVEQIQDCQVLYVVSIGGPAAAKVVRAGIHPLKKPKGCAAQEAIAELQTVMAGSPPPWLAKLVGVSAEERVRFSVSDDEDEAARA,soluble
14,MSTESSHQVHTATVPVRWTDFDRFGHVTNSAYVDLAQEARTVWANDNFAVKGHQIPAVFVRHIEVDYLRPIMPSTSQVVVETEVVHIGNTSFTTRQHLKDGEGHVCATVIAVQVAVDMLTTRPRAIAAHELQVLTQFAASTQQESEQ,not soluble
15,SNAMILVPIDISDKEFTERIISHVESEARIDDAEVHFLTVIPSLPYYASLGMAYTAELPGMDELREGSETQLKEIAKKFSIPEDRMHFHVAEGSPKDKILALAKSLPADLVIIASHRPDITTYLLGSNAAAVVRHAECSVLVVR,soluble
16,MGSDKIHHHHHHAQQKVEILPFGNMDQWVTREIKESGIIGGNTKKVYAIGPTETIVGAKPYANKGGSPWGTSNVMARVSGITKTNTSVFPETRGDGFCARLDTRMESVKVLGIVDITVLAAGSMFLGTVHEPIKSTKNPNKMLQMGIPFTDRPSAIQFDYKVKMSDRENRIRATGFSKITDVPGKDFPAVILLLQKRWEDAKGNVYAKRIGTMVNYYYHSTDWKNGSKYDIMYGDITKDPAYKAHMMRLQASEYFTVNSKGESVPIHEVAWGEADDVPTHMILQFTSSHGGAYIGSPGNSLYIDNVKLIY,not soluble
17,MGSDKIHHHHHHMNYQQLFRNRLAVLATMHQKEKVIAPLLEQELGIKVIVPPDFNTDIFGTFTREVKRPGTQIAAARLKAEKVLELTGENLAIASEGSFAPHPLVPYIYSNREIIILLDKINDIEIIGEEFSTYTNFNHQAVESLDEAYTFAKKVGFPEHGLVVWFENSEKKCHEIIKGITQETALIEAINFGLEKSPNSKINLETDMRAIYNPTRMKNIEKATHNLLQKISSCCPQCHTPGFETTERIKGLPCELCHTPTTLTLRAIYQCKKCGFRQDKLFPNGIEFADPSQCVYCNP,not soluble
18,MDSSNYFYGGNNICIINTKWGKHSGIGGYAEIIDTLVGNFTNISSWAKIGIRDHIHTNFLICDFVYKDNDHIMPPGISSFEDYWVKIGNDVWVGTNVTILRGVEVGDGAVIAAGSVVTKSIPPYAIVGGNPAKFIKWRFPFEVREKLLEIKLEHHHHHH,not soluble
19,MSLEPASAPKVERLEVSAYTVPTETPESDGTIAWSETTLVMVRMAACGAEGLGYTFADVATAALIDAHLKDAVVGHNPLNIPELWSTMVRKVRNLGRPGVCSMAISAVDNALWDLKARLLHLSVADLLGRAHDSIGAYGSGGFTSYSDEELRQQLTGWIGQGLTQVKMKIGSDPASDLARVRSARGAIGPDAELFVDANGAYDRKQALAKAAAFADLGVSWFEEPVSSDDLAGLRLIRERAPAGMRIAAGEYGYDSFYFRRMLEAEAVDVLQGDATRCAGITGFLAAGNLSTSFSTPFSAHTAPSLHAHAACALTSAINVEYFFDHYRIEQMFFDGALVPSNGVLRPDSTRPGFGLECKLSDMEKYRVYGNVTTEGHHHHHH,not soluble
